One assay concerns rAAV-LacZ. Kind of assay: Inhibition of rAAV-LacZ transduction of HeLa cells by soluble GAGs. The conditions noted are these: 30 μg/ml GAG; HeLa cells; 44 h post-infection. The class given is cell-based, AAV-2. The method, then:
FIGS. 1A and 1B illustrate the inhibition of AAV infection by various glycosaminoglycans. In the data shown in FIG. 1A, rAAV was incubated with the indicated concentrations of heparin (solid squares), chondroitin sulfate B (dermatan sulfate) (open circles), chondroitin sulfate A (open diamonds) or chondroitin sulfate C (open triangles) for 1 hour at 37° C. prior to a 1-hour adsorption period of the virus/GAG mixture to HeLa cells for infection. β-galactosidase activity was assayed 44 hours post-infection using a Galacto-Light Plus kit (Tropix Inc.), and measured in a luminometer. Each point denotes the average % decrease in Relative Light Units (RLU) per ug of protein relative to the maximum RLU/μg protein obtained in experiments without GAG. In the data shown in FIG. 1B, HeLa cells were preincubated with increasing concentrations of heparin at 37° C. for 1 hour. After thorough washing, cells were infected with rAAV as described above. Data points represent the average % maximum RLU/ug protein obtained without heparin preincubation.
rAAV-LacZ at an MOI of 2 was incubated in DMEM-H media in the presence or absence of indicated soluble GAGs at 1.0, 5.0, 10, 20, 30 μg/ml for 1 h at 37° C. For infection, rAAV-LacZ or the virus/GAG mixture was incubated with 2×10^5 HeLa cells for 1 h at 37° C. in a 5% CO2 chamber. […]

The subject of a further assay is 3H-wt AAV-2. In words: Inhibition of 3H-wt AAV-2 binding to HeLa cells by soluble GAGs. The conditions noted are these: 30 μg/ml, 90 min at 4° C. The method, then:
FIG. 2 illustrates that soluble heparin inhibits binding of AAV to the cell surface. After pre-incubation of 3H-wt AAV-2 with increasing concentrations of the indicated GAGs or the GAG analogue dextran sulfate, labeled virus was adsorbed to HeLa cells for 90 minutes at 4° C. Unbound virus was removed by three washes with ice cold binding buffer and radioactivity was quantitated as described in methods. Data is represented as the average % inhibition relative to the CPM bound in the absence of soluble GAG.
(§1) For direct binding assays, ^3H-labeled wtAAV-2 was incubated with cells either attached to plates or in suspension, as indicated, at a ratio of 4×10^11 particles/3×10^5 cells for 90 minutes at 4° C. in HBSB. Cells were then washed 3 times in ice cold HBSB to remove unbound virus, and were solubilized in 0.3 N NaOH. After neutralization with glacial acetic acid, cell-associated radioactivity was quantitated in a scintillation counter. For inhibition studies, and after enzymatic treatments, ^3H-AAV was bound to adherent HeLa cells. Binding to wild type CHO and CHO cell mutants was done with suspended cells. […] Non-specific binding was determined in the presence of 100-fold excess unlabeled wt AAV (previously dialyzed in HBS, 10% glycerol). Binding of Cy3-labeled virus was done on wild type CHO and pgsA-745 cells grown on coverslips. After fixation in 4% paraformaldehyde for 20 minutes at room temperature, cells were mounted on slides and bound Cy3 labeled virus was detected by confocal microscopy. […]
To further examine the observed specificity and to determine whether GAGs were inhibiting binding of the AAV virions to the cell surface, ^3H-wt AAV was incubated with GAGs (heparin, dermatan sulfate, chondroitin sulfate A, chondroitin sulfate C, dextran sulfate) at various concentrations. After incubation with cells, the mixture was washed and cells were solubilized to quantify bound virus. […]

The subject of assay [1] is cell surface glycosaminoglycans of HeLa cells. Kind of assay: 3H-AAV binding to HeLa cells after GAG lyase digestion of cell surface GAGs. To be noted: maximum concentration of enzyme tested. On the procedure: (§2) FIGS. 3A and 3B illustrate the effect of enzymatic digestion of cell surface glycosaminoglycans on AAV binding and infection. In the data shown in FIG. 3A, HeLa cells were treated with the indicated concentrations of the following GAG lyases: heparitinase (solid squares), heparinase I (open diamonds), chondroitinase ABC (open circles), or chondroitinase AC (open triangles), as described in Example 13, below. After thorough washing, the ability of AAV to bind the cell surface was assessed as described in Example 12, below. Data points represent the average % reduction in AAV binding relative to AAV binding obtained without enzymatic treatment. In the data shown in FIG. 3B, HeLa cells were treated with heparitinase or heparinase I as described herein. After thorough washing, rAAV was incubated with cells for a I hour adsorption period at 37° C. Cells were harvested 44 hours post-infection and assayed for β-galactosidase activity. Results are shown as the average % reduction in AAV transduction relative to transduction observed in the absence of enzymatic treatment. Data points represent the mean and standard deviation of experiments performed in triplicate.
as §1
GAG lyases were reconstituted in phosphate buffered saline (PBS). […] Prior to use, each enzyme was tested for activity by a standard method used to determine specific activity of GAG lyases, except that enzyme activity was monitored under the conditions used for digestion, PBS pH 7.4 at 37° C. […]
Subconfluent HeLa cells were treated with various concentrations of each specific enzyme and assessed for ^3H-AAV binding.

The test system is the same in assay [2]. Kind of assay: rAAV-LacZ transduction of HeLa cells after GAG lyase digestion. Type of assay: cell-based. The conditions noted are these: for reduction of rAAV transduction compared to untreated control cells: HeLa cells treated with various concentrations of enzyme. The method, then: as §2
GAG lyases were reconstituted in phosphate buffered saline (PBS). For enzymatic digestion of cell surface GAGs, 3×10^4 HeLa cells were washed and incubated with the indicated concentrations of GAG lyases in PBS containing 0.1%BSA, 0.2% gelatin and 0.1% glucose (digestion buffer) for 1 hour at 37° C. in a 5% CO2 chamber. Cells were then washed four times with digestion buffer and subjected to rAAV infection as described above. Prior to use, each enzyme was tested for activity by a standard method used to determine specific activity of GAG lyases, except that enzyme activity was monitored under the conditions used for digestion, PBS pH 7.4 at 37° C. (Linhardt, (1994) Analysis of glycosaminoglycans with polysaccharide lyases, p. 17.13.17-17.13.32. in K. Janssen (ed.), Current Protocols in Molecular Biology, vol. 3. John Wiley & Sons, Inc., New York). Cells remained attached to the plate after all enzymatic treatments. […]

For chondroitin sulfate B, the “inhibition of rAAV transduction (β-galactosidase activity)” value with rAAV-LacZ worked out at 71%. For the same molecule, the “inhibition of AAV binding” value in the assay with 3H-wt AAV-2 stood at 51%. Turning to chondroitinase ABC, in assay [1], the “reduction of 3H-AAV binding to the cell surface after enzymatic treatment” value (“reduction of 3H-AAV binding” below) is on record as “did not result in any reduction”. Consider dextran sulfate, for which the “inhibition of AAV binding” value with 3H-wt AAV-2 is listed as 36%.

B1: heparinase: GAG lyase purchased from Sigma; cleaves linkages found in heparan sulfate (protein, UniProt Q05819 22-384, looked up)
Heparin lyase I: QQKKSGNIPYRVNVQADSAKQKAIIDNKWVAVGINKPYALQYDDKLRFNGKPSYRFELKAEDNSLEGYAAGETKGRTELSYSYATTNDFKKFPPSVYQNAQKLKTVYHYGKGICEQGSSRSYTFSVYIPSSFPDNATTIFAQWHGAPSRTLVATPEGEIKTLSIEEFLALYDRMIFKKNIAHDKVEKKDKDGKITYVAGKPNGWKVEQGGYPTLAFGFSKGYFYIKANSDRQWLTDKADRNNANPENSEVMKPYSSEYKTSTIAYKMPFAQFPKDCWITFDVAIDWTKYGKEANTILKPGKLDVMMTYTKNKKPQKAHIVNQQEILIGRNDDDGYYFKFGIYRVGNSTVPVTYNLSGYSETAR
As for B1, in assay [2], the “reduction of rAAV transduction compared to untreated control cells” value came out at 80%. Moreover, the “reduction of 3H-AAV binding” value in assay [1] came to 66%.

B2: chondroitinase AC: GAG lyase from Seikagagku; cleaves only chondroitin sulfate type A and C (protein, UniProt Q59288 23-700, looked up)
Chondroitinase-AC: QQTGTAELIMKRVMLDLKKPLRNMDKVAEKNLNTLQPDGSWKDVPYKDDAMTNWLPNNHLLQLETIIQAYIEKDSHYYGDDKVFDQISKAFKYWYDSDPKSRNWWHNEIATPQALGEMLILMRYGKKPLDEALVHKLTERMKRGEPEKKTGANKTDIALHYFYRALLTSDEALLSFAVKELFYPVQFVHYEEGLQYDYSYLQHGPQLQISSYGAVFITGVLKLANYVRDTPYALSTEKLAIFSKYYRDSYLKAIRGSYMDFNVEGRGVSRPDILNKKAEKKRLLVAKMIDLKHTEEWADAIARTDSTVAAGYKIEPYHHQFWNGDYVQHLRPAYSFNVRMVSKRTRRSESGNKENLLGRYLSDGATNIQLRGPEYYNIMPVWEWDKIPGITSRDYLTDRPLTKLWGEQGSNDFAGGVSDGVYGASAYALDYDSLQAKKAWFFFDKEIVCLGAGINSNAPENITTTLNQSWLNGPVISTAGKTGRGKITTFKAQGQFWLLHDAIGYYFPEGANLSLSTQSQKGNWFHINNSHSKDEVSGDVFKLWINHGARPENAQYAYIVLPGINKPEEIKKYNGTAPKVLANTNQLQAVYHQQLDMVQAIFYTAGKLSVAGIEIETDKPCAVLIKHINGKQVIWAADPLQKEKTAVLSIRDLKTGKTNRVKIDFPQQEFAGATVELK
Turning to B2, the “reduction of 3H-AAV binding” value in assay [1] is on record as “did not result in any reduction”.

B3: heparitinase: GAG lyase purchased from Sigma; cleaves linkages found in heparan sulfate (protein, UniProt Q59289 25-659, looked up)
Heparin-sulfate lyase: QSSSITRKDFDHINLEYSGLEKVNKAVAAGNYDDAAKALLAYYREKSKAREPDFSNAEKPADIRQPIDKVTREMADKALVHQFQPHKGYGYFDYGKDINWQMWPVKDNEVRWQLHRVKWWQAMALVYHATGDEKYAREWVYQYSDWARKNPLGLSQDNDKFVWRPLEVSDRVQSLPPTFSLFVNSPAFTPAFLMEFLNSYHQQADYLSTHYAEQGNHRLFEAQRNLFAGVSFPEFKDSPRWRQTGISVLNTEIKKQVYADGMQFELSPIYHVAAIDIFLKAYGSAKRVNLEKEFPQSYVQTVENMIMALISISLPDYNTPMFGDSWITDKNFRMAQFASWARVFPANQAIKYFATDGKQGKAPNFLSKALSNAGFYTFRSGWDKNATVMVLKASPPGEFHAQPDNGTFELFIKGRNFTPDAGVFVYSGDEAIMKLRNWYRQTRIHSTLTLDNQNMVITKARQNKWETGNNLDVLTYTNPSYPNLDHQRSVLFINKKYFLVIDRAIGEATGNLGVHWQLKEDSNPVFDKTKNRVYTTYRDGNNLMIQSLNADRTSLNEEEGKVSYVYNKELKRPAFVFEKPKKNAGTQNFVSIVYPYDGQKAPEISIRENKGNDFEKGKLNLTLTINGKQQLVLVP
For the molecule B3, the “reduction of AAV infection” value in assay [2] (0.425 mIU/ml enzyme, HeLa cells) is on record as “up to 72%”. In addition, the “reduction of rAAV transduction compared to untreated control cells” value in assay [2] turned out to be 80%. The “reduction of 3H-AAV binding” value in assay [1] came out at 73%.

These data come from US6703237B2, “Methods and formulations for mediating adeno-associated virus (AAV) attachment and infection and methods for purifying AAV” (priority 1998, dated 2004).
